Experimental data as given in patent US20030219825A1.

Target: melanocortin-1 receptor (MC1R) (human) (UniProt Q01726)
Test: cell-based or functional assay
Settings: scale: response value

Sequence of UniProt Q01726 (Q01726 whole entry): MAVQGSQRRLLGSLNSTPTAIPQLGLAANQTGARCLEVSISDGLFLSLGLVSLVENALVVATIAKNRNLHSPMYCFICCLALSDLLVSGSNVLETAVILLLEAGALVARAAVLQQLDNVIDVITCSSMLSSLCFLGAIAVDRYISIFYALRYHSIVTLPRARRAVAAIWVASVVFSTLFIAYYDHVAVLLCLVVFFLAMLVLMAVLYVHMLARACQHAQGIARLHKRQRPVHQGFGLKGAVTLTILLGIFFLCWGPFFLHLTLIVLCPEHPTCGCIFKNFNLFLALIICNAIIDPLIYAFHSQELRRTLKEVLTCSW

maximal response value (z value minus background z value, luminescence, 6xCRE-luciferase reporter lawn): 25
Substance: 4-L-norleucine-7-D-phenylalanine-alpha melanocyte stimulating hormone (from UniProt P01189 138-150) (peptide)
